Experimental data as given in patent US20130029395.

Biological target: octadecenoyl-ACP

B1: Synechococcus elongatus PCC7942 YP-400611 (Synpcc7942-1594) protein with C-terminal His-tag (protein)
chain: MFGLIGHLTSLEQARDVSRRMGYDEYADQGLEFWSSAPPQIVDEITVTSATGKVIHGRYIESCFLPEMLAARRFKTATRKVLNAMSHAQKHGIDISALGGFTSIIFENFDLASLRQVRDTTLEFERFTTGNTHTAYVICRQVEAAAKTLGIDITQATVAVVGATGDIGSAVCRWLDLKLGVGDLILTARNQERLDNLQAELGRGKILPLEAALPEADFIVWVASMPQGVVIDPATLKQPCVLIDGGYPKNLGSKVQGEGIYVLNGGVVEHCFDIDWQIMSAAEMARPERQMFACFAEAMLLEFEGWHTNFSWGRNQITIEKMEAIGEASVRHGFQPLALAI
  Km for the reduction of octadecenoyl-ACP in the presence of 2 mM NADPH: 7.8 ± 2 µM
